PMC12618078

Legend:
PTIP = PTIP (UniProt Q6ZW49); experiment: reciprocal co-IP, Western blot; settings: reference: WT 53BP1 (before and 1 h after IR); sites T334
RIF1 = RIF1 (UniProt Q5UIP0); experiment: reciprocal co-IP, Western blot; settings: reference: WT 53BP1 (before and 1 h after IR); sites T334

binding against the reference (PTIP): stronger | binding against the reference (RIF1): stronger
Substance: 53BP1 (from UniProt Q12888) T334A 53BP1 (before and 1 h after IR)
